The target of data set [1] is T1, RPA (Homo sapiens, UniProt P27694;P15927;P35244 1-616;1-270;1-121). As to the kind of experiment: cryo-EM (3.2 Å, trimeric core); 2 mM Mg(OAc)2; FA: 25 mM HEPES pH 8.0, 0.2 M KOAc, 10% glycerol, 0.25 mM TCEP, 1 mM Mg(OAc)2, 0.01% Brij-35, 25 °C, 10 nM DNA; BLI: 25 mM HEPES pH 8.0, 200 mM KOAc, 0.01% Tween-20, 1 mM Mg(OAc)2, 0.25 mM TCEP, 25 °C. The conditions noted are these: protein: recombinant; tags: 10xHis on RPA3; copies: 1;1;1; single strand.

Data set [2] has as its target T1, RPA. Description: fluorescence anisotropy; 1 mM Mg(OAc)2; FA: 25 mM HEPES pH 8.0, 0.2 M KOAc, 10% glycerol, 0.25 mM TCEP, 1 mM Mg(OAc)2, 0.01% Brij-35, 25 °C, 10 nM DNA; BLI: 25 mM HEPES pH 8.0, 200 mM KOAc, 0.01% Tween-20, 1 mM Mg(OAc)2, 0.25 mM TCEP, 25 °C. The conditions noted are these: protein: recombinant; tags: 10xHis on RPA3; copies: 1;1;1; label: 5' 6-FAM; single strand.

The target of another data set is RPA(∆WHD) (Homo sapiens, UniProt P27694;P15927;P35244 1-616;1-206;1-121). The data set is described as above. The note with it: protein: recombinant; tags: 10xHis on RPA3; copies: 1;1;1; label: 5' 6-FAM; single strand.
Sequence of RPA(∆WHD) (P27694 whole entry, chain 1 of 3): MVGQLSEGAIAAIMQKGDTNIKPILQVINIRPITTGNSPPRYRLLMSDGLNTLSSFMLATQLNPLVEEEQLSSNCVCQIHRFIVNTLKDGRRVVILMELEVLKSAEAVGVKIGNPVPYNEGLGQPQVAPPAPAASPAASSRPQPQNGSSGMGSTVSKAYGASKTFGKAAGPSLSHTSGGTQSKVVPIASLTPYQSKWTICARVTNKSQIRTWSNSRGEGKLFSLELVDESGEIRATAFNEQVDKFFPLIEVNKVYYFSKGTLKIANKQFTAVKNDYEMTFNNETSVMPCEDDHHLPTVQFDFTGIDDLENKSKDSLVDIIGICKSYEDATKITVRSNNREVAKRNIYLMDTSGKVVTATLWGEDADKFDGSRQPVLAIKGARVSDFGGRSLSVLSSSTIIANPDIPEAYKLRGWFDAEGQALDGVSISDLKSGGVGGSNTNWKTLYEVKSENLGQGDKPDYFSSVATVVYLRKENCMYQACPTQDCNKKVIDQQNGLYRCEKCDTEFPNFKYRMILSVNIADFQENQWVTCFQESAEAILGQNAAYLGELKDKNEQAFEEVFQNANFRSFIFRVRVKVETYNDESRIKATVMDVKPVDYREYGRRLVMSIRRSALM
Sequence of RPA(∆WHD) (P15927 1-206, chain 2 of 3): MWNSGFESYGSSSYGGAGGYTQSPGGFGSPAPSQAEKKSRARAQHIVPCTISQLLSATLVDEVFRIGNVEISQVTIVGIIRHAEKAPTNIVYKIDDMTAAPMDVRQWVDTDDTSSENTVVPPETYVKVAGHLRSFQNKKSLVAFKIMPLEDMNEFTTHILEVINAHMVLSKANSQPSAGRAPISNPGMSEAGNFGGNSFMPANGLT
Sequence of RPA(∆WHD) (P35244 whole entry, chain 3 of 3): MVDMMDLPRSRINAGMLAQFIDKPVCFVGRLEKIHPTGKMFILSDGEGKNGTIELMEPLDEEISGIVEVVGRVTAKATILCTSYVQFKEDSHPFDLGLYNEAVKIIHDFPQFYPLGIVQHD
A further data set concerns the target T2, RAD52(∆C) (Homo sapiens, UniProt P43351 1-400, del401-418).
T2 sequence: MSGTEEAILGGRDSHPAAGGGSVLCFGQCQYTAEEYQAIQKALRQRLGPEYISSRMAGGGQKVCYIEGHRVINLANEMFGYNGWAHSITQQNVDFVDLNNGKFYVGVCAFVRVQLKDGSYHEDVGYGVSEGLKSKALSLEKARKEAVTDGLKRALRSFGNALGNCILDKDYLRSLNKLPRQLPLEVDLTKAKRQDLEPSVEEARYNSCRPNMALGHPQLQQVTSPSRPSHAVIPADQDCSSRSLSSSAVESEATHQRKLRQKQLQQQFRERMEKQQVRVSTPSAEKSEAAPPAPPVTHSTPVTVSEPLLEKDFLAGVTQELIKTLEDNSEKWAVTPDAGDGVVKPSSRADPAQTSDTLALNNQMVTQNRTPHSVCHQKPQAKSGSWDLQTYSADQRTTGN
The description is as above. The note with it: protein: recombinant; tags: none (tags removed); chain copies: 11; label: 5' 6-FAM; single strand.

For the next data set, the target named is T3, RAD52(∆RID) (Homo sapiens, UniProt P43351 1-418, del239-290).
T3 sequence: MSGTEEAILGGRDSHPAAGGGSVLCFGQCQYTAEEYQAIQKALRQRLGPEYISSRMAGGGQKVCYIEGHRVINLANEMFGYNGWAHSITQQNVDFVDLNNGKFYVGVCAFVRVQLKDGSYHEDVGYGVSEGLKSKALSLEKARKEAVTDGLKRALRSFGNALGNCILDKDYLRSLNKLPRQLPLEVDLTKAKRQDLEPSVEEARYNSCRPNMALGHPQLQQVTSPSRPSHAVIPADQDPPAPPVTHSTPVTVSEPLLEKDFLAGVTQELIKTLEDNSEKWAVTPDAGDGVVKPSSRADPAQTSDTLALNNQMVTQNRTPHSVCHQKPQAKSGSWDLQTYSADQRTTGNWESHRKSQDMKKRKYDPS
Described as above. The note with it: protein: recombinant; tags: none (tags removed); label: 5' 6-FAM; single strand.

The target of another data set is T4, RAD52-OR (open ring) (Homo sapiens, UniProt P43351 1-418).
T4 sequence: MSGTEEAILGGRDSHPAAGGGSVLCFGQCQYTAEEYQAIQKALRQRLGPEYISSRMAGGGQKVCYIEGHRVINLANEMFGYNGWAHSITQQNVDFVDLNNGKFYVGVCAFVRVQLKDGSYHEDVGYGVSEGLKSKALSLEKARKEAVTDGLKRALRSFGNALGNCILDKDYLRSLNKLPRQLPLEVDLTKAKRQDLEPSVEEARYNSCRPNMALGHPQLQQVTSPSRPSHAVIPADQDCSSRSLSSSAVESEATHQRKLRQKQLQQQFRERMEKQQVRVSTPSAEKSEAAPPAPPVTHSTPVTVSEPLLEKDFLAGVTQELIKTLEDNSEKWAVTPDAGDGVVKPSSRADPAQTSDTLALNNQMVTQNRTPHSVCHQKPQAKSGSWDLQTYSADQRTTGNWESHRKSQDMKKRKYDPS
Description: fluorescence anisotropy; 1 mM Mg(OAc)2; ring concentration (10-mer); FA: 25 mM HEPES pH 8.0, 0.2 M KOAc, 10% glycerol, 0.25 mM TCEP, 1 mM Mg(OAc)2, 0.01% Brij-35, 25 °C, 10 nM DNA; BLI: 25 mM HEPES pH 8.0, 200 mM KOAc, 0.01% Tween-20, 1 mM Mg(OAc)2, 0.25 mM TCEP, 25 °C. The note with it: protein: recombinant; tags: none (tags removed); chain copies: 10; label: 5' 6-FAM; single strand.

The target of the next data set is T5, RAD52 NTD (Homo sapiens, UniProt P43351 1-209, del210-418).
T5 sequence: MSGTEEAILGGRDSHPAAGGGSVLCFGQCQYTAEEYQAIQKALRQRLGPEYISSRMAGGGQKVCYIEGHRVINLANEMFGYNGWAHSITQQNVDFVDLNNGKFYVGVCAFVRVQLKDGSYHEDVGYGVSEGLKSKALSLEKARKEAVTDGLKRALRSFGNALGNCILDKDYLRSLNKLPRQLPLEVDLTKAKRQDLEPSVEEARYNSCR
As to the kind of experiment: fluorescence anisotropy; 1 mM Mg(OAc)2; ring concentration (11-mer); FA: 25 mM HEPES pH 8.0, 0.2 M KOAc, 10% glycerol, 0.25 mM TCEP, 1 mM Mg(OAc)2, 0.01% Brij-35, 25 °C, 10 nM DNA; BLI: 25 mM HEPES pH 8.0, 200 mM KOAc, 0.01% Tween-20, 1 mM Mg(OAc)2, 0.25 mM TCEP, 25 °C. The note with it: protein: recombinant; tags: none (tags removed); chain copies: 11; label: 5' 6-FAM; single strand. A general note: In fluorescence polarisation assays a small probe gives low polarisation when free and higher when bound to something large.

Data on two molecules can be found in PMC11096129.

T1 sequence (P27694 whole entry, chain 1 of 3): as the sequence (P27694 whole entry, chain 1 of 3) above
T1 sequence (P15927 whole entry, chain 2 of 3): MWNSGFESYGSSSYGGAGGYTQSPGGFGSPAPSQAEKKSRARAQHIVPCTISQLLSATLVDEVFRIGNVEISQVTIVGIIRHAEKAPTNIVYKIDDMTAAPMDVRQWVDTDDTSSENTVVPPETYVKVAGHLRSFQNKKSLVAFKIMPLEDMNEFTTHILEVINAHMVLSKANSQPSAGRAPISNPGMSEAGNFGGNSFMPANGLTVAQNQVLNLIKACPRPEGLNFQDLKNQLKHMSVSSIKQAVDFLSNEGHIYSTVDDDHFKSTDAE
T1 sequence (P35244 whole entry, chain 3 of 3): as the sequence (P35244 whole entry, chain 3 of 3) above

CGGCAGCGTTGACTAGACGGATTCGATA (ssDNA) [SSA7 (28 nt)]: in the data set with RPA [1], the binding result is “binds”.

As usually defined, the Kd is the free concentration of one partner at which half of the binding sites on the other are occupied at equilibrium, for simple one-to-one binding. TATCGAATCCGTCTAGTCAACGCTGCCGAATTCTACCAGT (ssDNA) [FAM-SSA4 (40 nt)]: the Kd with RPA [2] was 3.6 ± 0.5 nM; in the data set with RPA(∆WHD), 3.4 ± 0.9 nM; with RAD52(∆C), 0.2 ± 0.2 nM; with RAD52(∆RID) it was 0.7 ± 0.2 nM; in the data set with RAD52-OR (open ring), 0.3 ± 0.1 nM; in the data set with RAD52 NTD it was 3.2 ± 0.6 nM.
